In PMC10786891, “Massively parallel profiling of RNA-targeting CRISPR-Cas13d”:
Numbering of substitutions follows the chain as printed. Names may count otherwise.

T1: EsCas13d, nuclease-dead (Eubacterium siraeum, UniProt B0MS50, R295A;H300A;R849A;H854A)
T1 sequence: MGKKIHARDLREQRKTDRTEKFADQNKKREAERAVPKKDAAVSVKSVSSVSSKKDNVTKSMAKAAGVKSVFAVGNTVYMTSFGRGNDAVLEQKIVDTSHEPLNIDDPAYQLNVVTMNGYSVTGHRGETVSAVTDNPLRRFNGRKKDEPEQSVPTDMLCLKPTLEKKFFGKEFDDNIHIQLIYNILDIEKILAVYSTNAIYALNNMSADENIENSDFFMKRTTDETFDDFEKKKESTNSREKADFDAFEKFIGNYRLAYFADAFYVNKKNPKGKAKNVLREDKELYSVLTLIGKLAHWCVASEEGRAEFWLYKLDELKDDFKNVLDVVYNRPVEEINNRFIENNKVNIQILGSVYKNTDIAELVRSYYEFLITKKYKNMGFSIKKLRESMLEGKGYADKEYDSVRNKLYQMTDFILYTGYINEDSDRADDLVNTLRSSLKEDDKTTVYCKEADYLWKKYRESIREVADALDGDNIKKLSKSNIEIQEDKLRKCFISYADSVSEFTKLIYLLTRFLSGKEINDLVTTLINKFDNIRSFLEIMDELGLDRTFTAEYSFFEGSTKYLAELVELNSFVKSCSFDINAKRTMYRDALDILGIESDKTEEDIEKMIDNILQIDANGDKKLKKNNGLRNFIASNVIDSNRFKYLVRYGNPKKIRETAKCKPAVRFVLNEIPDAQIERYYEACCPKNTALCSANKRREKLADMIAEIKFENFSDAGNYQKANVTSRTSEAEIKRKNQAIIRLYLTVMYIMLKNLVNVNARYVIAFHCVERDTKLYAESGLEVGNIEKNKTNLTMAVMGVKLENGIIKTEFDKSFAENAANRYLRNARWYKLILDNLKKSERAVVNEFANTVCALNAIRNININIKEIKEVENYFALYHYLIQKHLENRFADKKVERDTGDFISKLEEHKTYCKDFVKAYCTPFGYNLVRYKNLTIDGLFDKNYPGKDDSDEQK

B1: target 1 G5U,G15C (mixed)
RNA 1: CACCCGUGCAAAAAUGCAGGGGUCUAAAACUGAGCGGAUAACCUCUCUAUGG
RNA 2: GGGAAUGGAUCCACAUCUACGAAUUCGUACCAUAGACAGGUUAUCCUCUCACCGAGAUCGGAAGAGCACACGU
B2: target 1 insA 3' of 19,insU 3' of 1 (mixed)
RNA 1: B1 RNA 1
RNA 2: GGGAAUGGAUCCACAUCUACGAAUUCGUACCAUAAGAGAGGUUAUCCGCUCAUCCGAGAUCGGAAGAGCACACGU
B3: target 1 insU 3' of 20,insC 3' of 17 (mixed)
RNA 1: B1 RNA 1
RNA 2: GGGAAUGGAUCCACAUCUACGAAUUCGUACCAUUAGCAGAGGUUAUCCGCUCACCGAGAUCGGAAGAGCACACGU
B4: target 1 insA 3' of 17,insA 3' of 7 (mixed)
RNA 1: B1 RNA 1
RNA 2: B2 RNA 2 with A35G, G36A, C47A, G48C, C49G, U50C, C51U, A52C, U53A
B5: target 1 insU 3' of 9,insU 3' of 7 (mixed)
RNA 1: B1 RNA 1
RNA 2: GGGAAUGGAUCCACAUCUACGAAUUCGUACCAUAGAGAGGUUAUUCUCGCUCACCGAGAUCGGAAGAGCACACGU
B6: target 1 insC 3' of 22,insG 3' of 2 (mixed)
RNA 1: B1 RNA 1
RNA 2: B2 RNA 2 with A32C, U33A, A34U, A52G, U53A
B7: target 1 insC 3' of 12,insU 3' of 1 (mixed)
RNA 1: B1 RNA 1
RNA 2: B2 RNA 2 with A35G, G36A, A37G, G38A, A39G, G41C
B8: target 1 U3A,A16C (mixed)
RNA 1: B1 RNA 1
RNA 2: B1 RNA 2 with A36C, C37G, U47G, U49A
B9: target 1 U11A,A18G (mixed)
RNA 1: B1 RNA 1
RNA 2: B1 RNA 2 with A34G, C37G, U41A, U47G
B10: target 1 insC 3' of 18,insA 3' of 12 (mixed)
RNA 1: B1 RNA 1
RNA 2: B3 RNA 2 with U34A, A35C, C37A, A38G, G39A, A40G, G42A
B11: target 1 A9U,C21A (mixed)
RNA 1: B1 RNA 1
RNA 2: B1 RNA 2 with C31A, C37G, A43U, U47G
B12: target 1 A9U,G12C (mixed)
RNA 1: B1 RNA 1
RNA 2: B1 RNA 2 with C37G, G40C, A43U, U47G
B13: target 1 C7U,A9C (mixed)
RNA 1: B1 RNA 1
RNA 2: B1 RNA 2 with C37G, A43C, C45U, U47G
B14: target 1 C4A,A14U (mixed)
RNA 1: B1 RNA 1
RNA 2: B1 RNA 2 with C37G, A38U, U47G, C48A
B15: target 1 insU 3' of 18,insG 3' of 10 (mixed)
RNA 1: B1 RNA 1
RNA 2: B3 RNA 2 with U34A, A35U, C37A, A38G, G39A, A40G, G42U, U44G
B16: target 1 insC 3' of 14,insA 3' of 6 (mixed)
RNA 1: B1 RNA 1
RNA 2: B5 RNA 2 with G39C, U41G, A43U, U44A, U47C, C48A
B17: target 1 insA 3' of 21,insU 3' of 21 (mixed)
RNA 1: B1 RNA 1
RNA 2: B3 RNA 2 with U34A, A35U, G36A, C37G
B18: target 1 insA 3' of 19,insA 3' of 2 (mixed)
RNA 1: B1 RNA 1
RNA 2: B2 RNA 2 with U53A
B19: target 1 insC 3' of 13,insG 3' of 6 (mixed)
RNA 1: B1 RNA 1
RNA 2: B5 RNA 2 with G40C, U41G, A43U, U44A, U47C, C48G
B20: target 1 insC 3' of 20,insA 3' of 8 (mixed)
RNA 1: B1 RNA 1
RNA 2: B2 RNA 2 with U33C, A34U, C46A, G48C, C49G, U50C, C51U, A52C, U53A
B21: target 1 A14G,C22A (mixed)
RNA 1: B1 RNA 1
RNA 2: B1 RNA 2 with C30A, C37G, A38G, U47G
B22: target 1 U8G,A18U (mixed)
RNA 1: B1 RNA 1
RNA 2: B1 RNA 2 with A34U, C37G, U44G, U47G
B23: target 1 del1,del5 (mixed)
RNA 1: B1 RNA 1
RNA 2: GGGAAUGGAUCCACAUCUACGAAUUCGUACCAUAGAGAGGUUAUCCCUCCCGAGAUCGGAAGAGCACACGU
B24: target 1 insA 3' of 11,insU 3' of 9 (mixed)
RNA 1: B1 RNA 1
RNA 2: B5 RNA 2 with U42A, A43U, U44A, C46U, U47C
B25: target 1 insA 3' of 19,insC 3' of 1 (mixed)
RNA 1: B1 RNA 1
RNA 2: B2 RNA 2 with U53C
B26: target 1 A16U,G17C (mixed)
RNA 1: B1 RNA 1
RNA 2: B1 RNA 2 with G35C, A36U, C37G, U47G
B27: target 1 insA 3' of 19,insG 3' of 1 (mixed)
RNA 1: B1 RNA 1
RNA 2: B2 RNA 2 with U53G
B28: target 1 C4U,G5A (mixed)
RNA 1: B1 RNA 1
RNA 2: B1 RNA 2 with C37G, U47A, C48U
B29: target 1 U8A,G13A (mixed)
RNA 1: B1 RNA 1
RNA 2: B1 RNA 2 with C37G, G39A, U44A, U47G
B30: target 1 insG 3' of 18,insC 3' of 3 (mixed)
RNA 1: B1 RNA 1
RNA 2: B2 RNA 2 with A35G, A52C, U53A
B31: target 1 insC 3' of 11,insA 3' of 6 (mixed)
RNA 1: B1 RNA 1
RNA 2: B5 RNA 2 with U42C, A43U, U44A, U47C, C48A
B32: target 1 C4G,U19G (mixed)
RNA 1: B1 RNA 1
RNA 2: B1 RNA 2 with U33G, C37G, U47G, C48G
B33: target 1 del13,del15 (mixed)
RNA 1: B1 RNA 1
RNA 2: GGGAAUGGAUCCACAUCUACGAAUUCGUACCAUAGAAGUUAUCCGCUCACCGAGAUCGGAAGAGCACACGU
B34: target 1 insG 3' of 16,insC 3' of 10 (mixed)
RNA 1: B1 RNA 1
RNA 2: B5 RNA 2 with A38G, G39A, U41G, A43U, U44C, U45A, C46U, U47C

Molecular target: T1, EsCas13d, nuclease-dead
Assay: crRNA (strand 1, pre-loaded); Mg2+; 40 mM Tris-HCl pH 7.5, 150 mM NaCl, 6 mM MgCl2, 1 mM DTT, 0.1% Tween-20, 0.2 mg/ml BSA; 25 C; 10 min per concentration, then washed
Conditions: tags: His6-TwinStrep-SUMO cleaved; N-terminal SNAP kept (SNAP-Surface 488); label: 3' end held by stalled T7 RNA polymerase

Compared with B1, B2 is 2.3-fold lower in Kd: 46 ± 9 nM for the first, 20 ± 1.7 nM for the second.

Compared with B3, B4 is 4.2-fold lower in Kd: 44 ± 8 nM for the first, 10.4 ± 0.5 nM for the second.

B5 and B6 are within error of each other in Kd: 25.4 ± 1.3 nM for the first, 21.1 ± 3.2 nM for the second.

Going from B7 to B8, the Kd rises from 12 ± 1.1 nM to 76 ± 7 nM (6.3-fold).

B9 and B10 are the same in Kd: 80 ± 40 nM for the first, 80 ± 22 nM for the second.

B11 and B12 are within 1.5-fold of each other in Kd: 35.8 ± 2.3 nM for the first, about 46 nM for the second.

Compared with B13, B14 is 6.7-fold higher in Kd: 8.9 ± 0.4 nM for the first, about 60 nM for the second.

B15 and B16 are within error of each other in Kd: 68 ± 22 nM for the first, 56 ± 12 nM for the second.

First: B17
Second: B18
The Kd of the first is 2.2-fold lower: 9.1 ± 0.5 nM for the first, 19.9 ± 2.1 nM for the second.

First: B19
Second: B20
The Kd of the first is 1.5-fold higher: 14.6 ± 1.6 nM for the first, 9.6 ± 0.5 nM for the second. The second binds more tightly here.

Compared with B21, B22 is 2-fold higher in Kd: 40 ± 4 nM for the first, 80 ± 19 nM for the second. The first binds more tightly here.

B23 and B24 are within 1.5-fold of each other in Kd: 20.4 ± 1.2 nM for the first, 27.8 ± 2.2 nM for the second.

Going from B25 to B26, the Kd rises from 18.6 ± 2.4 nM to 87 ± 23 nM (4.7-fold).

B27 and B28 are within 1.5-fold of each other in Kd: 20 ± 1.3 nM for the first, 14.2 ± 1.5 nM for the second.

Compared with B29, B30 is 5.3-fold higher in Kd: 15 ± 0.7 nM for the first, 80 ± 9 nM for the second.

B31 and B32 are within error of each other in Kd: 47 ± 14 nM for the first, 100 ± 50 nM for the second.

B33 and B34 are within error of each other in Kd: 30 ± 5 nM for the first, 40 ± 9 nM for the second.
